This is an account of results in patent CN108484759A.

In the test the target is 鸡传染性法氏囊病病毒 B87株. The experiment in a line: cell-based or functional assay.

B1: IBDV-VP2 scFv30抗体 (scFv)
scFv: AVTLDESGGGLQTPGGALSLVCKGSGFDFSSHGMAWVRQAPGKGLEWVAGIGSSSSGTAYGSAVQGRATISRDNGQSTVRLQLNNLRAEDTGTYYCAKSVGDCAYGYSCAAGGIDAWGHGTEVIVSSASGGGGSGGGGSGGGGSVLTQPSSVSANPGETVKITCSGGGGSYGWFQQKSPGSAPVTVIYNNNNRPSDIPSRFSGSKSGSTATLTITGVQAEDEAVYYCGGSEDSSAGYVGIFGAGTTLTVLG
For the molecule B1, the 阻断或抑制CPE的最小蛋白浓度 was 4.69 µg/mL.
